Laboratory results reported in publication PMC3985934 (Biochemistry, 2014).
Numbering of substitutions follows the chain as printed. Names may count otherwise. Read-outs that look alike come from different tables or passages of the source.

B1: Rhizobium etli pyruvate carboxylase, wild type (enzyme)
chain: PISKILVANRSEIAIRVFRAANELGIKTVAIWAEEDKLALHRFKADESYQVGRGPHLARDLGPIESYLSIDEVIRVAKLSGADAIHPGYGLLSESPEFVDACNKAGIIFIGPKADTMRQLGNKVAARNLAISVGVPVVPATEPLPDDMAEVAKMAAAIGYPVMLKASWGGGGRGMRVIRSEADLAKEVTEAKREAMAAFGKDEVYLEKLVERARHVESQILGDTHGNVVHLFERDCSVQRRNQKVVERAPAPYLSEAQRQELAAYSLKIAGATNYIGAGTVEYLMDADTGKFYFIEVNPRIQVEHTVTEVVTGIDIVKAQIHILDGAAIGTPQSGVPNQEDIRLNGHALQCRVTTEDPEHNFIPDYGRITAYRSASGFGIRLDGGTSYSGAIITRYYDPLLVKVTAWAPNPLEAISRMDRALREFRIRGVATNLTFLEAIIGHPKFRDNSYTTRFIDTTPELFQQVKRQDRATKLLTYLADVTVNGHPEAKDRPKPLENAARPVVPYANGNGVKDGTKQLLDTLGPKKFGEWMRNEKRVLLTDTTMRDGHQSLLATRMRTYDIARIAGTYSHALPNLLSLECWGGATFDVSMRFLTEDPWERLALIREGAPNLLLQMLLRGANGVGYTNYPDNVVKYFVRQAAKGGIDLFRVFDCLNWVENMRVSMDAIAEENKLCEAAICYTGDILNSARPKYDLKYYTNLAVELEKAGAHIIAVKDMAGLLKPAAAKVLFKALREATGLPIHFHTHDTSGIAAATVLAAVEAGVDAVDAAMDALSGNTSQPCLGSIVEALSGSERDPGLDPAWIRRISFYWEAVRNQYAAFESDLKGPASEVYLHEMPGGQFTNLKEQARSLGLETRWHQVAQAYADANQMFGDIVKVTPSSKVVGDMALMMVSQDLTVADVVSPDREVSFPESVVSMLKGDLGQPPSGWPEALQKKALKGEKPYTVRPGSLLKEADLDAERKVIEKKLEREVSDFEFASYLMYPKVFTDFALASDTYGPVSVLPTPAYFYGLADGEELFADIEKGKTLVIVNQAVSATDSQGMVTVFFELNGQPRRIKVPDRAHGATGAAVRRKAEPGNAAHVGAPMPGVISRVFVSSGQAVNAGDVLVSIEAMKMETAIHAEKDGTIAEVLVKAGDQIDAKDLLAVYGG
modifications: biotin prosthetic group (enzymic biotin; residue not given)
B2: Rhizobium etli pyruvate carboxylase, H216N mutant (enzyme)
chain: B1 chain with H215N
modifications: biotin prosthetic group (enzymic biotin; residue not given)

Assays:
AUC [1] = target: the molecule itself; assay: AUC
AUC [2] = target: the molecule itself; assay: AUC; remark: listed apart in the source

| Protein | stoichiometry N (AUC [1]) | stoichiometry N (AUC [2]) |
| --- | --- | --- |
| B1 | 4 | 4 |
| B2 | 4 | 4 |
